Assay results published in US20210388087A1 (Chugai, published 2021).

Target: T1, CD3 epsilon homodimer protein (UniProt P07766 23-126)
T1 construct: also called CD3 (CD3 epsilon)
Test: SPR Biacore T200, CD3e homodimer on chip, vs unaltered GLS3000 antibody

T1 sequence (P07766 23-126): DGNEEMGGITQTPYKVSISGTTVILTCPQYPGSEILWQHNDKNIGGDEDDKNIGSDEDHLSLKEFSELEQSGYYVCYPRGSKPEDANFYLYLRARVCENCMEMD

Binder	ratio of amounts bound (Z=Y/X)
GLS3000 Q90P (antibody, name in Kabat numbering, V domains shown, one-arm IgG as m2) VH: QVQLVESGGGVVQPGRSLRLSCAASGFTFSNAWMHWVRQAPGKGLEWVAQIKAKSNNYATYYAESVKGRFTISRDDSKNSLYLQMNSLKTEDTAVYYCRYVHYGAYYGVDAWGQGTTVTVSS VL: DIVMTQSPLSLPVTPGEPASISCRSSQSLVHSNRNTYLHWYQQKPGQAPRLLIYKVSNRFSGVPDRFSGSGSGTDFTLKISRVEAEDVGVYYCGPGTQVPYTFGQGTKLEIK	0.27
GLS3000 R29A (antibody, name in Kabat numbering, V domains shown, one-arm IgG as m2) VH: QVQLVESGGGVVQPGRSLRLSCAASGFTFSNAWMHWVRQAPGKGLEWVAQIKAKSNNYATYYAESVKGRFTISRDDSKNSLYLQMNSLKTEDTAVYYCRYVHYGAYYGVDAWGQGTTVTVSS VL: DIVMTQSPLSLPVTPGEPASISCRSSQSLVHSNANTYLHWYQQKPGQAPRLLIYKVSNRFSGVPDRFSGSGSGTDFTLKISRVEAEDVGVYYCGQGTQVPYTFGQGTKLEIK	0.63
GLS3000 R24G (antibody, name in Kabat numbering, V domains shown, one-arm IgG as m2) VH: QVQLVESGGGVVQPGRSLRLSCAASGFTFSNAWMHWVRQAPGKGLEWVAQIKAKSNNYATYYAESVKGRFTISRDDSKNSLYLQMNSLKTEDTAVYYCRYVHYGAYYGVDAWGQGTTVTVSS VL: DIVMTQSPLSLPVTPGEPASISCGSSQSLVHSNRNTYLHWYQQKPGQAPRLLIYKVSNRFSGVPDRFSGSGSGTDFTLKISRVEAEDVGVYYCGQGTQVPYTFGQGTKLEIK	0.89
GLS3000 R24S (antibody, name in Kabat numbering, V domains shown, one-arm IgG as m2) VH: QVQLVESGGGVVQPGRSLRLSCAASGFTFSNAWMHWVRQAPGKGLEWVAQIKAKSNNYATYYAESVKGRFTISRDDSKNSLYLQMNSLKTEDTAVYYCRYVHYGAYYGVDAWGQGTTVTVSS VL: DIVMTQSPLSLPVTPGEPASISCSSSQSLVHSNRNTYLHWYQQKPGQAPRLLIYKVSNRFSGVPDRFSGSGSGTDFTLKISRVEAEDVGVYYCGQGTQVPYTFGQGTKLEIK	0.89
GLS3000 Q93E (antibody, name in Kabat numbering, V domains shown, one-arm IgG as m2) VH: QVQLVESGGGVVQPGRSLRLSCAASGFTFSNAWMHWVRQAPGKGLEWVAQIKAKSNNYATYYAESVKGRFTISRDDSKNSLYLQMNSLKTEDTAVYYCRYVHYGAYYGVDAWGQGTTVTVSS VL: DIVMTQSPLSLPVTPGEPASISCRSSQSLVHSNRNTYLHWYQQKPGQAPRLLIYKVSNRFSGVPDRFSGSGSGTDFTLKISRVEAEDVGVYYCGQGTEVPYTFGQGTKLEIK	0.75
GLS3000 R24D (antibody, name in Kabat numbering, V domains shown, one-arm IgG as m2) VH: QVQLVESGGGVVQPGRSLRLSCAASGFTFSNAWMHWVRQAPGKGLEWVAQIKAKSNNYATYYAESVKGRFTISRDDSKNSLYLQMNSLKTEDTAVYYCRYVHYGAYYGVDAWGQGTTVTVSS VL: DIVMTQSPLSLPVTPGEPASISCDSSQSLVHSNRNTYLHWYQQKPGQAPRLLIYKVSNRFSGVPDRFSGSGSGTDFTLKISRVEAEDVGVYYCGQGTQVPYTFGQGTKLEIK	0.75
GLS3000 R29D (antibody, name in Kabat numbering, V domains shown, one-arm IgG as m2) VH: QVQLVESGGGVVQPGRSLRLSCAASGFTFSNAWMHWVRQAPGKGLEWVAQIKAKSNNYATYYAESVKGRFTISRDDSKNSLYLQMNSLKTEDTAVYYCRYVHYGAYYGVDAWGQGTTVTVSS VL: DIVMTQSPLSLPVTPGEPASISCRSSQSLVHSNDNTYLHWYQQKPGQAPRLLIYKVSNRFSGVPDRFSGSGSGTDFTLKISRVEAEDVGVYYCGQGTQVPYTFGQGTKLEIK	0.41
GLS3000 Q93R (antibody, name in Kabat numbering, V domains shown, one-arm IgG as m2) VH: QVQLVESGGGVVQPGRSLRLSCAASGFTFSNAWMHWVRQAPGKGLEWVAQIKAKSNNYATYYAESVKGRFTISRDDSKNSLYLQMNSLKTEDTAVYYCRYVHYGAYYGVDAWGQGTTVTVSS VL: DIVMTQSPLSLPVTPGEPASISCRSSQSLVHSNRNTYLHWYQQKPGQAPRLLIYKVSNRFSGVPDRFSGSGSGTDFTLKISRVEAEDVGVYYCGQGTRVPYTFGQGTKLEIK	1.13
GLS3000 Q93P (antibody, name in Kabat numbering, V domains shown, one-arm IgG as m2) VH: QVQLVESGGGVVQPGRSLRLSCAASGFTFSNAWMHWVRQAPGKGLEWVAQIKAKSNNYATYYAESVKGRFTISRDDSKNSLYLQMNSLKTEDTAVYYCRYVHYGAYYGVDAWGQGTTVTVSS VL: DIVMTQSPLSLPVTPGEPASISCRSSQSLVHSNRNTYLHWYQQKPGQAPRLLIYKVSNRFSGVPDRFSGSGSGTDFTLKISRVEAEDVGVYYCGQGTPVPYTFGQGTKLEIK	0.25
GLS3000 R24P (antibody, name in Kabat numbering, V domains shown, one-arm IgG as m2) VH: QVQLVESGGGVVQPGRSLRLSCAASGFTFSNAWMHWVRQAPGKGLEWVAQIKAKSNNYATYYAESVKGRFTISRDDSKNSLYLQMNSLKTEDTAVYYCRYVHYGAYYGVDAWGQGTTVTVSS VL: DIVMTQSPLSLPVTPGEPASISCPSSQSLVHSNRNTYLHWYQQKPGQAPRLLIYKVSNRFSGVPDRFSGSGSGTDFTLKISRVEAEDVGVYYCGQGTQVPYTFGQGTKLEIK	0.7
GLS3000 Q90S (antibody, name in Kabat numbering, V domains shown, one-arm IgG as m2) VH: QVQLVESGGGVVQPGRSLRLSCAASGFTFSNAWMHWVRQAPGKGLEWVAQIKAKSNNYATYYAESVKGRFTISRDDSKNSLYLQMNSLKTEDTAVYYCRYVHYGAYYGVDAWGQGTTVTVSS VL: DIVMTQSPLSLPVTPGEPASISCRSSQSLVHSNRNTYLHWYQQKPGQAPRLLIYKVSNRFSGVPDRFSGSGSGTDFTLKISRVEAEDVGVYYCGSGTQVPYTFGQGTKLEIK	0.73

Results, then the binder that gave them:

ratio of amounts bound (Z=Y/X)	Binder
0.86	GLS3000 R24A (antibody, name in Kabat numbering, V domains shown, one-arm IgG as m2) VH: QVQLVESGGGVVQPGRSLRLSCAASGFTFSNAWMHWVRQAPGKGLEWVAQIKAKSNNYATYYAESVKGRFTISRDDSKNSLYLQMNSLKTEDTAVYYCRYVHYGAYYGVDAWGQGTTVTVSS VL: DIVMTQSPLSLPVTPGEPASISCASSQSLVHSNRNTYLHWYQQKPGQAPRLLIYKVSNRFSGVPDRFSGSGSGTDFTLKISRVEAEDVGVYYCGQGTQVPYTFGQGTKLEIK
0.87	GLS3000 Q93Y (antibody, name in Kabat numbering, V domains shown, one-arm IgG as m2) VH: QVQLVESGGGVVQPGRSLRLSCAASGFTFSNAWMHWVRQAPGKGLEWVAQIKAKSNNYATYYAESVKGRFTISRDDSKNSLYLQMNSLKTEDTAVYYCRYVHYGAYYGVDAWGQGTTVTVSS VL: DIVMTQSPLSLPVTPGEPASISCRSSQSLVHSNRNTYLHWYQQKPGQAPRLLIYKVSNRFSGVPDRFSGSGSGTDFTLKISRVEAEDVGVYYCGQGTYVPYTFGQGTKLEIK
0.88	GLS3000 R24T (antibody, name in Kabat numbering, V domains shown, one-arm IgG as m2) VH: QVQLVESGGGVVQPGRSLRLSCAASGFTFSNAWMHWVRQAPGKGLEWVAQIKAKSNNYATYYAESVKGRFTISRDDSKNSLYLQMNSLKTEDTAVYYCRYVHYGAYYGVDAWGQGTTVTVSS VL: DIVMTQSPLSLPVTPGEPASISCTSSQSLVHSNRNTYLHWYQQKPGQAPRLLIYKVSNRFSGVPDRFSGSGSGTDFTLKISRVEAEDVGVYYCGQGTQVPYTFGQGTKLEIK
0.96	GLS3000 Q93S (antibody, name in Kabat numbering, V domains shown, one-arm IgG as m2) VH: QVQLVESGGGVVQPGRSLRLSCAASGFTFSNAWMHWVRQAPGKGLEWVAQIKAKSNNYATYYAESVKGRFTISRDDSKNSLYLQMNSLKTEDTAVYYCRYVHYGAYYGVDAWGQGTTVTVSS VL: DIVMTQSPLSLPVTPGEPASISCRSSQSLVHSNRNTYLHWYQQKPGQAPRLLIYKVSNRFSGVPDRFSGSGSGTDFTLKISRVEAEDVGVYYCGQGTSVPYTFGQGTKLEIK
0.83	GLS3000 R24E (antibody, name in Kabat numbering, V domains shown, one-arm IgG as m2) VH: QVQLVESGGGVVQPGRSLRLSCAASGFTFSNAWMHWVRQAPGKGLEWVAQIKAKSNNYATYYAESVKGRFTISRDDSKNSLYLQMNSLKTEDTAVYYCRYVHYGAYYGVDAWGQGTTVTVSS VL: DIVMTQSPLSLPVTPGEPASISCESSQSLVHSNRNTYLHWYQQKPGQAPRLLIYKVSNRFSGVPDRFSGSGSGTDFTLKISRVEAEDVGVYYCGQGTQVPYTFGQGTKLEIK
0.17	GLS3000 Q90Y (antibody, name in Kabat numbering, V domains shown, one-arm IgG as m2) VH: QVQLVESGGGVVQPGRSLRLSCAASGFTFSNAWMHWVRQAPGKGLEWVAQIKAKSNNYATYYAESVKGRFTISRDDSKNSLYLQMNSLKTEDTAVYYCRYVHYGAYYGVDAWGQGTTVTVSS VL: DIVMTQSPLSLPVTPGEPASISCRSSQSLVHSNRNTYLHWYQQKPGQAPRLLIYKVSNRFSGVPDRFSGSGSGTDFTLKISRVEAEDVGVYYCGYGTQVPYTFGQGTKLEIK
0.9	GLS3000 R24Q (antibody, name in Kabat numbering, V domains shown, one-arm IgG as m2) VH: QVQLVESGGGVVQPGRSLRLSCAASGFTFSNAWMHWVRQAPGKGLEWVAQIKAKSNNYATYYAESVKGRFTISRDDSKNSLYLQMNSLKTEDTAVYYCRYVHYGAYYGVDAWGQGTTVTVSS VL: DIVMTQSPLSLPVTPGEPASISCQSSQSLVHSNRNTYLHWYQQKPGQAPRLLIYKVSNRFSGVPDRFSGSGSGTDFTLKISRVEAEDVGVYYCGQGTQVPYTFGQGTKLEIK
0.87	GLS3000 R24Y (antibody, name in Kabat numbering, V domains shown, one-arm IgG as m2) VH: QVQLVESGGGVVQPGRSLRLSCAASGFTFSNAWMHWVRQAPGKGLEWVAQIKAKSNNYATYYAESVKGRFTISRDDSKNSLYLQMNSLKTEDTAVYYCRYVHYGAYYGVDAWGQGTTVTVSS VL: DIVMTQSPLSLPVTPGEPASISCYSSQSLVHSNRNTYLHWYQQKPGQAPRLLIYKVSNRFSGVPDRFSGSGSGTDFTLKISRVEAEDVGVYYCGQGTQVPYTFGQGTKLEIK
0.85	GLS3000 Q93A (antibody, name in Kabat numbering, V domains shown, one-arm IgG as m2) VH: QVQLVESGGGVVQPGRSLRLSCAASGFTFSNAWMHWVRQAPGKGLEWVAQIKAKSNNYATYYAESVKGRFTISRDDSKNSLYLQMNSLKTEDTAVYYCRYVHYGAYYGVDAWGQGTTVTVSS VL: DIVMTQSPLSLPVTPGEPASISCRSSQSLVHSNRNTYLHWYQQKPGQAPRLLIYKVSNRFSGVPDRFSGSGSGTDFTLKISRVEAEDVGVYYCGQGTAVPYTFGQGTKLEIK
0.72	GLS3000 Q93D (antibody, name in Kabat numbering, V domains shown, one-arm IgG as m2) VH: QVQLVESGGGVVQPGRSLRLSCAASGFTFSNAWMHWVRQAPGKGLEWVAQIKAKSNNYATYYAESVKGRFTISRDDSKNSLYLQMNSLKTEDTAVYYCRYVHYGAYYGVDAWGQGTTVTVSS VL: DIVMTQSPLSLPVTPGEPASISCRSSQSLVHSNRNTYLHWYQQKPGQAPRLLIYKVSNRFSGVPDRFSGSGSGTDFTLKISRVEAEDVGVYYCGQGTDVPYTFGQGTKLEIK
